The values below come from patent US20230235004A1 (published 2023).

Changes are numbered by the printed parent chain. Read-outs that look alike come from different tables or passages of the source.

Common to all, as to experiment: cell binding
For test [1], the target named is T1, human MAdCAM expressed on cells (human, UniProt Q13477 19-382).
T1 construct: whole, on cells
T1 sequence (looked up): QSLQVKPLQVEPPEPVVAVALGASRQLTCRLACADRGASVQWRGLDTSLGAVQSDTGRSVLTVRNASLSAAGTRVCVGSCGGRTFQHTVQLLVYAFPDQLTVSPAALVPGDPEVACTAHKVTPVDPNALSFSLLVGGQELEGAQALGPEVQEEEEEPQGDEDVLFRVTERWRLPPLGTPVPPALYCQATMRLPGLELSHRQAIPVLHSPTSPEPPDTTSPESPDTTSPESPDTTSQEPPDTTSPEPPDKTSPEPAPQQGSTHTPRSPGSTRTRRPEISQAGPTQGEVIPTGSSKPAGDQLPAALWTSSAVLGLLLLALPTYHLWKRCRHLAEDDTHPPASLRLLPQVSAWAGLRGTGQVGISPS

Test [2] concerns the target T2, mouse MAdCAM expressed on cells (mouse, UniProt Q61826 22-405).
T2 construct: whole, on cells
T2 sequence (looked up): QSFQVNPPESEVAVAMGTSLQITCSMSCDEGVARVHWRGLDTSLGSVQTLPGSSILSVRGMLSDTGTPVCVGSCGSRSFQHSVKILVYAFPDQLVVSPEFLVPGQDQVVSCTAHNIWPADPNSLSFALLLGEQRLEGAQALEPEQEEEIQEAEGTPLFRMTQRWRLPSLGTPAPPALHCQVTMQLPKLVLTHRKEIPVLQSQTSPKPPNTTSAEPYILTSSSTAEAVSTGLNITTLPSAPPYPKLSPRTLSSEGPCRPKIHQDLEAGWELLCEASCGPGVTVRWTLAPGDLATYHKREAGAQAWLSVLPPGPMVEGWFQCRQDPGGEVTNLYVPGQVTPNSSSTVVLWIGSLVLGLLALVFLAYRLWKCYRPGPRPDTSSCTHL

Test [3] concerns the target T1, human MAdCAM expressed on cells. The source holds these as a separate data set.
Test [4] concerns the target T2, mouse MAdCAM expressed on cells. This is another data set of the same source.

B1: MAdCAM Antibody Table 2 clone 81 (antibody, V domains shown)
VH: EVQLLESGGGLVKPGGSLRLSCAASGFAFSSHWMHWVRQAPGKGLEWVAGTSGSGESRDYADFVKGRFTISRDDSKNTLYLQMNSLKTEDTAVYYCARETYYYYYMDVWGKGTTVTVSS
VL: DIQMTQSPSSLSASVGDRVTITCRASQGISNYLAWYQQKPGKAPKLLIYDAANLEGGVPSRFSGSGSGTDFTLTISSLQPEDFATYYCQQSDIFPPTFGQGTKVEIK
notes: IgG format
For B1, the binding result in test [1] and in test [2] was “binds” each time.

B2: MAdCAM antibody Table 1 clone 17 (scFv)
scFv: EVQLLESGGGLVQPGGSLRLSCAASGFTFSDSAMHWVRQAPGKGLEWVSAISGSGSTIYYADSVKGRFTISRDNSKNTLYLQMNSLRAEDTAVYYCVSDIAVAGHWYFDLWGRGTLVTVSSGGGGSGGGGSGGGGSGGGGSDIQMTQSPSSLSASVGDRVTITCRASQSISTFLNWYQQKPGKAPKLLIYAASRLEGGVPSRFSGSGSGTDFTLTISSLQPEDFATYYCQQANSFPLTFGPGTKVDIK
B2: the binding result in test [3] is reported as “binds”; in test [4] it was “no binding”.

B3: MAdCAM Antibody Table 2 clone 69 (antibody, V domains shown)
VH: QVQLVQSGAEVKKPGASVKVSCKASGYTFTSYYMHWVRQAPGQGLEWMGIIDPSGGSTSYAQKFQGRVTMTRDTSTSTVYMELSSLRSEDTAVYYCAREEWSSGGVGYFDYWGQGTLVTVSS
VL: DIQMTQSPSSLSASVGDRVTITCRASQGISSYLAWYQQKPGKAPKLLIYATSSLQTGVPSRFSGSGSGTDFTLTISSLQPEDFATYYCQQTYSIPITFGQGTRLEIK
notes: IgG format
For B3, the values for the binding result in test [1] and in test [2] were “binds” and “no binding”, respectively.

B4: MAdCAM Antibody Table 2 clone 71 (antibody, V domains shown)
VH: QVQLVQSGAEVKKPGASVKVSCKASGYTFTSYYMHWVRQAPGQGLEWMGIINPSGGSTSYAQKFQGRVTMTRDTSTSTVYMELSSLRSEDTAVYYCARDSVAGTGGRYYGMDVWGQGTLVTVSS
VL: B3 VL with S31N, L33F, T51A, T56G, T91S, I94L, I96Y, R103K
notes: IgG format
B4: the binding result in test [1] is reported as “binds”; in test [2], “no binding”.

B5: MAdCAM Antibody Table 2 clone 77 (antibody, V domains shown)
VH: EVQLLESGGGLVQPGGSLRLSCAASEFTFSNAWMSWVRQAPGKGLEWVASISSTSAYIDYADSVKGRFTISRDNSKNTLYLQMNSLRAEDTAVYYCAREVVGATTFDYWGQGTLVTVSS
VL: B3 VL with G28S, S31T, Y32W, T51A, T56S, T91A, Y92N, S93A, I94F, I96P
notes: IgG format
Regarding B5, the binding result in test [1] and in test [2] was “binds” throughout.

B6: MAdCAM Antibody Table 2 clone 70 (antibody, V domains shown)
VH: QVQLVQSGAEVKKPGASVKVSCKASGYPFTDYYMHWVRQAPGQGLEWMGWIKPNSGDTEYAQKFQGRVTMTRDTSTSTVYMELSSLRSEDTAVYYCARDRFVGKPDYYYYGMDVWGQGTMVTVSS
VL: B3 VL with G28S, S31V, Y32W, T51A, T56S, T91S, S93D, I94T, I96Y, R103K
notes: IgG format
On to B6, for which the figures for the binding result in test [1] and in test [2] were “binds” and “no binding”, respectively.

B7: MAdCAM Antibody Table 2 clone 72 (antibody, V domains shown)
VH: QVQLVQSGAEVKKPGASVKVSCKASGYTFTSYYMHWVRQAPGQGLEWMGVINPIGGTTTYAQKFQGRVTMTRDTSTSTVYMELSSLRSEDTAVYYCASGAPSYYYYGMDVWGQGTLVTVSS
VL: B3 VL with G28S, A34N, A50G, S53Y, Q55A, T91S, I94T, I96L, R103K, L104V
notes: IgG format
With B7, the binding result was “binds” in test [1] and “no binding” in test [2].

B8: MAdCAM antibody Table 1 clone 8 (scFv)
scFv: EVQLLESGGGLVQPGGSLRLSCAASGFMFGDYAMHWVRQAPGKGLEWVSAISGSGGSTYYADSVKGRFTISRDNSKNTLYLQMNSLRAEDTAVYYCAKDLVVAGIWYFDLWGRGTLVTVSSGGGGSGGGGSGGGGSGGGGSDIQMTQSPSSLSASVGDRVTITCRASQGISNNLNWYQQKPGKAPKLLIYDASSLESGVPSRFSGSGSGTDFTLTISSLQPEDFATYYCQQTHSFPSTFGQGTKLEIK
For B8, the binding result in test [4] is listed as “no binding”.

B9: MAdCAM Antibody Table 2 clone 73 (antibody, V domains shown)
VH: QVQLVQSGAEVKKPGASVKVSCKASGYTFTSNYVHWVRQAPGQGLEWMGRINPHSGDTSYAQKFQGRVTMTRDTSTSTVYMELSSLRSEDTAVYYCARAGQLWSDWYFDLWGRGTLVTVSS
VL: DIQMTQSPSSLSASVGDRVTITCQASQDIRNYLNWYQQKPGKAPKLLIYAATALRTGVPSRFSGSGSGTDFTLTISSLQPEDFATYYCQQSYSHPLTFGQGTKVEIK
notes: IgG format
B9: the binding result in test [1] is listed as “binds”; in test [2], “no binding”.

B10: MAdCAM Antibody Table 2 clone 80 (antibody, V domains shown)
VH: EVQLLESGGGLVQPGGSLRLSCAASGFTFDDYAMHWVRQAPGKGLEWVSAISGSGGSTYYADSVKGRFTISRDNSKNTLYLQMNSLRAEDTAVYYCAKDLGVVVPAALDYWGQGTTVTVSS
VL: B9 VL with R30S, Y32H, A50D, T52S, A53N, R55E, T56A, H94T, Q100G
notes: IgG format
Regarding B10, the binding result in test [1] is “binds”; in test [2] it was “no binding”.

B11: MAdCAM antibody Table 1 clone 16 (scFv)
scFv: EVQLLESGGGLVQPGGSLRLSCAASGFTFEDYAMHWVRQAPGKGLEWVSYLNSDGGSTSYADSVKGRFTISRDNSKNTLYLQMNSLRAEDTAVYYCAKDYCTNGVCAFDYWGQGTLVTVSSGGGGSGGGGSGGGGSGGGGSDIQMTQSPSSLSASVGDRVTITCRASQSISTYLNWYQQKPGKAPKLLIYDASNLETGVPSRFSGSGSGTDFTLTISSLQPEDFATYYCQQSYTIPITFGQGTRLEIK
In the case of B11, the binding result in test [3] is recorded as “binds”; in test [4], “no binding”.

B12: MAdCAM antibody Table 1 clone 10 (scFv)
scFv: QVQLVQSGAEVKKPGASVKVSCKASGYTLTTWYMYWVRQAPGQGLEWMGWINPNRGATNYAQKFQGRVTMTRDTSTSTVYMELSSLRSEDTAVYYCAKGDLWGAMDVWGQGTLVTVSSGGGGSGGGGSGGGGSGGGGSDIQMTQSPSSLSASVGDRVTITCRASDNIGSWLAWYQQKPGKAPKLLIYAASSLQSGVPSRFSGSGSGTDFTLTISSLQPEDFATYYCQQGYSTPPTFGQGTKVEIK
As to B12, the binding result in test [3] is “binds”; in test [4], “no binding”.

B13: MAdCAM antibody Table 1 clone 30 (scFv)
scFv: B12 scFv
In the case of B13, the binding result in test [4] is on record as “no binding”.

B14: MAdCAM antibody Table 1 clone 25 (scFv)
scFv: B12 scFv
As for B14, the binding result in test [4] is on record as “no binding”.

B15: MAdCAM antibody Table 1 clone 26 (scFv)
scFv: B12 scFv with L113T
Take B15: the binding result was “binds” in test [3] and “no binding” in test [4].

B16: MAdCAM antibody Table 1 clone 21 (scFv)
scFv: EVQLLESGGGLVQPGGSLRLSCAASGFTFSNAWMSWVRQAPGKGLEWVSTIVGNGGATYYADSVKGRFTISRDNSKNTLYLQMNSLRAEDTAVYYCARDNPLRWQGMDVWGQGTLVTVSSGGGGSGGGGSGGGGSGGGGSDIQMTQSPSSLSASVGDRVTITCRASQDISNYLNWYQQKPGKAPKLLIYAASSLQSGVPSRFSGSGSGTDFTLTISSLQPEDFATYYCQQSYSIPPTFGPGTKVDIK
Consider B16, for which the binding result in test [3] is “binds”; in test [4] it was “no binding”.

B17: MAdCAM antibody Table 1 clone 27 (scFv)
scFv: QVQLVQSGAEVKKPGASVKVSCKASGYTFTGYYIHWVRQAPGQGLEWMGWMNPNSGNTGYAQKFQGRVTMTRDTSTSTVYMELSSLRSEDTAVYYCARDPGFLGYCSGGSCYDGWFDPWGQGTLVTVSSGGGGSGGGGSGGGGSGGGGSDIQMTQSPSSLSASVGDRVTITCRASQSISSYLHWYQQKPGKAPKLLIYAASSLQSGVPSRFSGSGSGTDFTLTISSLQPEDFATYYCQQSYTAPYTFGQGTKLEIK
With B17, the binding result is on record as “binds” in test [3] and “no binding” in test [4].

B18: MAdCAM antibody Table 1 clone 28 (scFv)
scFv: QVQLVQSGAEVKKPGASVKVSCKASGYTFTDYFLHWVRQAPGQGLEWMGWMNPTSGNTGYAQKFQGRVTMTRDTSTSTVYMELSSLRSEDTAVYYCAREGEGSGFDYWGQGTLVTVSSGGGGSGGGGSGGGGSGGGGSDIQMTQSPSSLSASVGDRVTITCRASQGINSWLAWYQQKPGKAPKLLIYDASNLETGVPSRFSGSGSGTDFTLTISSLQPEDFATYYCQQSYSTPLTFGGGTKVEIK
Regarding B18, the binding result in test [3] is “binds”; in test [4], “no binding”.
